The Kd is a measure of binding affinity in units of concentration. Read a high Kd as a looser complex. Usually EC50 stands for the concentration giving half of the maximal effect. A lower EC50 goes with greater potency. As usually defined, the koff is the first-order rate constant of dissociation. Low values mean slow dissociation, high ones fast dissociation. Broadly, the kon is the second-order rate constant of association. Low values mean slow association, high ones fast association.

The target of assay [1] is T1, human IGF-1R(1-902)-His10 (human, UniProt P08069 31-932).
T1 construct: Cy5-labelled in tr-FRET; also called hIGF-1R-His10; IGF-1R-His
Description: SPR, Fab over IGF-1R-10His captured by anti-His. How it is done:
(§1) All surface plasmon resonance (SPR) experiments were performed on a Biacore 3000 set to 25° C. using HBS-EP (Biacore, Cat. No. BR-1001-88) as the running buffer. A biotin-labeled anti-HisTag antibody (biotin-PENTA-His, Qiagen Cat. No. 34440) was immobilized to saturation on a Biacore SA chip (Cat. No. BR-1000-32) surface by injection at 500 nM in HBS-EP buffer. […] Subsequent to IGF-1R injections, flow rates were increased to 20 μL/min. A second, 130 μL injection of anti-IGF-1R antibody or Fab was performed to investigate interactions with the receptor. Each antibody and Fab was serially diluted from 64 nM to 0.5 nM to obtain concentration dependent kinetic binding curves. Each injection series was regenerated using 3×10 μL injections of 10 mM Acetate, pH 4.0, at 20 μL/min. Each curve was double referenced using (1) data obtained from a streptavidin surface devoid of IGF-1R and (2) data from a primary injection of IGF-1R followed by a secondary injection of HBS-EP buffer. The concentration series for each antibody and Fab was fit to the 1:1 binding model provided within the BiaEvaluation software of the manufacturer.
(§2) To obtain discrete affinities, Fab fragments of each antibody were generated using papain digestion as described above.

The target in assay [2] is T2, human INSR(28-956)-His10 (human, UniProt P06213 28-956).
T2 construct: range 28-956; Bought (R&D Systems 1544-IR); also called rh-INSR; soluble insulin receptor
Description: ELISA on coated rh-INSR. The method, then: ELISA assays were performed to determine specific binding of the Fab fragment antibodies to soluble IGF-1R over the insulin receptor. […] Color development was stopped by addition of 4NH₂SO₄ and optical density is measured at 450 nm using a Molecular Devices plate reader and binding curves are generated.
(ELISA stands for enzyme-linked immunosorbent assay.)

In assay [3] the target is T3, human IGF-1R expressed on cells (human, UniProt P08069 31-1367).
T3 construct: On MCF-7 tumor cells or on 3T3/CHO transfectants; precursor is processed into alpha and beta subunits; Signal peptide 1-30 left out as stated; also called wild type IGF-1R; IGF-1R 3T3
Description: flow cytometry, MCF-7 cells. A general note: In flow cytometry, cells or beads pass a laser one at a time.

Assay [4] has as its target T1, human IGF-1R(1-902)-His10. Description: SPR, Fab over captured IGF-1R-10His. How it is done:
as §1, §2

The target in assay [5] is T4, human IGF-1R(1-903)-Fc (human, UniProt P08069 31-933).
T4 construct: Made by Biogen Idec; Multimerises through IGF-1R and Fc; also called hIGF-1R-Fc; IGF-1R-Fc; not shown: C-terminal human IgG1-Fc tag
Description: SPR, Fab over captured hIGF-1R-Fc. How it is done: Experiments were performed on a Biacore 3000 set to 25° C. using HBS-EP (Biacore, Cat. No. BR-1001-88) as the running buffer. An anti-human IgG-Fc antibody (2C11 from Biogenesis, Cat. No. 5218-9850) was immobilized to saturation on a Biacore CM5 chip (Cat. No. BR-1000-14) surface by injection at 500 nM in HBS-EP buffer. mIGF-1R-Fc or hIGF-1R-Fc was captured on the chip surface by injecting 40 μL of 20 nM receptor at 3 μL/min. […] Dissociation of Fab was measured for ˜27 minutes. Fab was serially diluted from 25 to 0.4 nM to obtain concentration dependent kinetic binding curves. Regeneration of the surface chip between each injection series was performed using 3×10 μL injections of 100 mM glycine pH 2.0 at 60 μL/min. Each curve was double referenced using (1) data obtained from a CM5 chip surface devoid of the anti-IgG antibody 2C11 and (2) data from a primary injection of receptor followed by a secondary injection of HBS-EP buffer.
On the technique in general: In SPR one partner is held on a chip, and binding of the other changes the refractive index at the surface.

Assay [6] has as its target T5, hIGF-1R-Fc mutant SD016 (D531Q_V532N) (human, UniProt P08069 31-933).
T5 construct: not shown: C-terminal human IgG1-Fc tag
Description: SPR, M13-C06 Fab over captured mutant. The method, then: (§3) After, completion of the receptor-Fc loading step, flow rates were elevated to 5 μl/min. […] At the end of each sensorgram, the flow rate was elevated to 30 μl/min and the chip surface was regenerated by 2×10 μL injections of 0.1 M glycine, pH 2.

Assay [7] has as its target T6, hIGF-1R-Fc mutant SD008 (S257F) (human, UniProt P08069 31-933).
T6 construct: not shown: C-terminal human IgG1-Fc tag
Description: SPR, M13-C06 Fab over captured mutant. The method, then: as §3

Assay [8] has as its target T7, hIGF-1R-Fc mutant SD019 (E739W, L741F) (human, UniProt P08069 31-933).
T7 construct: not shown: C-terminal human IgG1-Fc tag
Description: SPR, M13-C06 Fab over captured mutant. How it is done: as §3

Assay [9] has as its target T8, hIGF-1R-Fc mutant SD009 (E264K) (human, UniProt P08069 31-933).
T8 construct: not shown: C-terminal human IgG1-Fc tag
Description: SPR, M13-C06 Fab over captured mutant. The method, then:
as §3

B1: M13-C06 Fab (Fab, V domains shown)
VH: EVQLLESGGGLVQPGGSLRLSCAASGFTFSIYRMQWVRQAPGKGLEWVSGISPSGGTTWYADSVKGRFTISRDNSKNTLYLQMNSLRAEDTAVYYCARWSGGSGYAFDIWGQGTMVTVSS
VL: DIQMTQSPLSLSASVGDRVTITCQASRDIRNYLNWYQQKPGKAPKLLIYDASSLQTGVPSRFGGSGSGTDFSFTIGSLQPEDIATYYCQQFDSLPHTFGQGTKLEIK
notes: Human Fab from a phage library, kappa light chain
Molecule B1 returned a Kd in assay [1] of 1.3 nM. Besides, the binding result in [2] is given as “no binding (tested: 2 µM-0.2 nM)”. The concentration for a half-maximal effect (EC50) in assay [3] was determined as 8.8 nM. Also, the results for the koff in [4] and in assay [5] were 0.0012 s⁻¹ and 0.000833 s⁻¹, respectively. The association rate constant (kon) in assay [4] was 880000 M⁻¹ s⁻¹; in [5] it was 852000 M⁻¹ s⁻¹. Also, the “Biacore Relative RUmax” value in assay [6] was 2; in assay [7] it was 1.5; in [8], 1.9; in assay [9], 0.6.

The values are drawn from US20090291088A1 (Biogen, published 2009).
